In patent publication US20050260697:

B1: caspase-3 (protein)
chain: SGISLDNSYKMDYPEMGLCIIINNKNFHKSTGMTSRSGTDVDAANLRETFRNLKYEVRNKNDLTREEIVELMRDVSKEDHSKRSSFVCVLLSHGEEGIIFGTNGPVDLKKITNFFRGDRCRSLTGKPKLFIIQACRGTELDCGIETDSGVDDDMACHKIPVEADFLYAYSTAPGYYSWRNSKDGSWFIQSLCAMLKQYADKLEFMHILTRVNRKVATEFESFSFDATFHAKKQIPCIVSMLTKELYFYH
B2: calpain-1 (protein)
chain: SEEIITPVYCTGVSAQVQKQRARELGLGRHENAIKYLGQDYEQLRVRCLQSGTLFRDEAFPPVPQSLGYKDLGPNSSKTYGIKWKRPTELLSNPQFIVDGATRTDICQGALGDCWLLAAIASLTLNDTLLHRVVPHGQSFQNGYAGIFHFQLWQFGEWVDVVVDDLLPIKDGKLVFVHSAEGNEFWSALLEKAYAKVNGSYEALSGGSTSEGFEDFTGGVTEWYELRKAPSDLYQIILKALERGSLLGCSIDISSVLDMEAITFKKLVKGHAYSVTGAKQVNYRGQVVSLIRMRNPWGEVEWTGAWSDSSSEWNNVDPYERDQLRVKMEDGEFWMSFRDFMREFTRLEICNLTPDALKSRTIRKWNTTLYEGTWRRGSTAGGCRNYPATFWVNPQFKIRLDETDDPDDYGDRESGCSFVLALMQKHRRRERRFGRDMETIGFAVYEVPPELVGQPAVHLKRDFFLANASRARSEQFINLREVSTRFRLPPGEYVVVPSTFEPNKEGDFVLRFFSEKSAGTVELDDQIQANLPDEQVLSEEEIDENFKALFRQLAGEDMEISVKELRTILNRIISKHKDLRTKGFSLESCRSMVNLMDRDGNGKLGLVEFNILWNRIRNYLSIFRKFDLDKSGSMSAYEMRMAIESAGFKLNKKLYELIITRYSEPDLAVDFDNFVCCLVRLETMFRFFKTLDTDLDGVVTFDLFKWLQLTMFA

Experiments:
[1] = molecular target: human cardiac Troponin-I3, P19429
[2] = molecular target: human cardiac Troponin-T2, P45379
[3] = molecular target: human muscle Troponin-T1, P13805
[4] = molecular target: human muscle Troponin-T3, P45378
Chain of human muscle Troponin-T3, P45378 (P45378 2-269): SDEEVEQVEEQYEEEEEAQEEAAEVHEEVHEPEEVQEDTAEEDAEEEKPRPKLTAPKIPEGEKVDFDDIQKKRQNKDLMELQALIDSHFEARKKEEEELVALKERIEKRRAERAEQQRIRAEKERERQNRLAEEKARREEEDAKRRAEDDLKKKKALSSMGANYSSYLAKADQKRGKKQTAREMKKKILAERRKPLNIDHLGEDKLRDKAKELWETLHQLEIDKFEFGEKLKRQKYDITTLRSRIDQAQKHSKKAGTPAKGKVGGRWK

Chain of human muscle Troponin-T1, P13805 (P13805 whole entry): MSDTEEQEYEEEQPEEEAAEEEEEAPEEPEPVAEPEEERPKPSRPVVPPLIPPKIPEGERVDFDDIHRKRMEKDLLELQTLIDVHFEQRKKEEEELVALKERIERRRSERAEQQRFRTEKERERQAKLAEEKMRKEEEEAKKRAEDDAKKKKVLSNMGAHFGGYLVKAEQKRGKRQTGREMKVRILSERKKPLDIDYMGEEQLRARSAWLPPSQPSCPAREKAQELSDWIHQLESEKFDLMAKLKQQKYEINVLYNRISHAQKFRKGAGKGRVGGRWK
Chain of human cardiac Troponin-I3, P19429 (P19429 whole entry, looked up): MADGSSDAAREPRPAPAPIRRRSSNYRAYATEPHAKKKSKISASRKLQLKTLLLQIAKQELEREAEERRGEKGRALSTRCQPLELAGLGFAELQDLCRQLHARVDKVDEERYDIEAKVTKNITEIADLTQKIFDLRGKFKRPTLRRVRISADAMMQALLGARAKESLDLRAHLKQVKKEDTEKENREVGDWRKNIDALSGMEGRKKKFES

| Protein | in vitro protease digestion, breakdown products on gels [1] | in vitro protease digestion, breakdown products on gels [2] | stated: cleaves (breakdown bands on a gel) [2] | in vitro protease digestion, breakdown products on Coomassie stained membrane and Western blot [3] | stated: cleaves (breakdown bands on a stained membrane and a blot) [3] | in vitro protease digestion, breakdown products on Coomassie stained membrane and Western blot [4] | stated: cleaves (breakdown bands on a stained membrane and a blot) [4] |
| --- | --- | --- | --- | --- | --- | --- | --- |
| B1 | human cardiac Troponin-T2 and Troponin-13 were cleaved by calpain-2 and caspase-3 proteases, producing unique breakdown products | human cardiac Troponin-T2 and Troponin-13 were cleaved by calpain-2 and caspase-3 proteases, producing unique breakdown products | the Caspase-3 lane shows a band d at the 25 kDa mark that is absent from the untreated lane and the Calpain-2 lanes; the Troponin-T2 band at 30 kDa is largely kept; no bands a, b, c |  |  |  |  |
| B2 |  |  |  | human muscle Troponin-T1/3 was digested by calpain-1 protease, producing unique breakdown products | Coomassie panel: the band at 35 kDa in the TnT lane weakens in the +Calpain-I lanes with time and a band near the 15 kDa mark appears; band B of the blot is mapped to TnT1 (new N-terminus AEQKRGKRQTGR) | human muscle Troponin-T1/3 was digested by calpain-1 protease, producing unique breakdown products | Coomassie panel: the band at 35 kDa in the TnT lane weakens in the +Calpain-I lanes with time; band A of the blot, just below the intact band, is mapped to TnT3 (new N-terminus APKIPEGEK) |
